In IntAct's records for PubMed 10409688:

B1: Eukaryotic initiation factor 4F subunit p150 (Saccharomyces cerevisiae), P39935 (parent)
chain: MTDETAHPTQSASKQESAALKQTGDDQQESQQQRGYTNYNNGSNYTQKKPYNSNRPHQQRGGKFGPNRYNNRGNYNGGGSFRGGHMGANSSNVPWTGYYNNYPVYYQPQQMAAAGSAPANPIPVEEKSPVPTKIEITTKSGEHLDLKEQHKAKLQSQERSTVSPQPESKLKETSDSTSTSTPTPTPSTNDSKASSEENISEAEKTRRNFIEQVKLRKAALEKKRKEQLEGSSGNNNIPMKTTPENVEEKGSDKPEVTEKTKPAEEKSAEPEVKQETPAEEGEQGEKGQIKEESTPKVLTFAERLKLKKQQKEREEKTEGKENKEVPVQEETKSAIESAPVPPSEQVKEETEVAETEQSNIDESATTPAIPTKSDEAEAEVEAEAGDAGTKIGLEAEIETTTDETDDGTNTVSHILNVLKDATPIEDVFSFNYPEGIEGPDIKYKKEHVKYTYGPTFLLQFKDKLNVKADAEWVQSTASKIVIPPGMGRGNRSRDSGRFGNNSSRGHDFRNTSVRNMDDRANSRTSSKRRSKRMNDDRRSNRSYTSRRDRERGSYRNEEKREDDKPKEEVAPLVPSANRWVPKFKSKKTEKKLAPDGKTELLDKDEVERKMKSLLNKLTLEMFDAISSEILAIANISVWETNGETLKAVIEQIFLKACDEPHWSSMYAQLCGKVVKELNPDITDETNEGKTGPKLVLHYLVARCHAEFDKGWTDKLPTNEDGTPLEPEMMSEEYYAAASAKRRGLGLVRFIGFLYRLNLLTGKMMFECFRRLMKDLTDSPSEETLESVVELLNTVGEQFETDSFRTGQATLEGSQLLDSLFGILDNIIQTAKISSRIKFKLIDIKELRHDKNWNSDKKDNGPKTIQQIHEEEERQRQLKNNSRSNSRRTNNSSNRHSFRRDAPPASKDSFITTRTYSQRNSQRAPPPKEEPAAPTSTATNMFSALMGESDDEE
partner: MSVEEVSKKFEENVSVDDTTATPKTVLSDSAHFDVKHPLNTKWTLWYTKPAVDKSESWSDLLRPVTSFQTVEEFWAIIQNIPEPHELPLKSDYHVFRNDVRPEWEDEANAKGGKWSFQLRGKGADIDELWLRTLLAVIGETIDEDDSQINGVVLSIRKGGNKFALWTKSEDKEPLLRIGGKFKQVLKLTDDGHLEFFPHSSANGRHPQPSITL

Variants of: B1
Conditions: with if4e_yeast CDC33, P07260

effect of a mutation on the interaction	Variant
decreasing interaction	E425D
decreasing interaction	L457A;L458A
decreasing interaction	K444A
